Measured values taken from patent US20050031631A1.

What was measured:
[1] = target: human IgE of ten monosensitive Pj allergic patients (single sera / the patients themselves) (human); assay: cell-based or functional assay
[2] = target: human IgE from a pool of sera (n=10) of Pj monosensitive allergic patients (human); assay: ELISA inhibition: pool of sera (n=10, 1:5) preincubated with the protein (0.25-20 ug/ml), then on wells coated with rParj1; bound IgE detected

skin prick test, patients with Type I immediate hypersensitivity (out of 10 patients) [1]	% inhibition [2]	skin prick test, patients with a positive reaction (out of 10 patients) [1]	Binder
9	85%		PjB mutant of Par j 1.0102 (Cys50->Ser and Cys52->Ser) (protein, not shown: small tags and cut ends) QETCGTMVRALMPCLPFVQGKEKEPSKGCCSGAKRLDGETKTGPQRVHASESIQTAMKTYSDIDGKLVSEVPKHCGIVDSKLPPIDVNMDCKTVGVVPRQPQLPVSLRHGPVTGPSDPAHKARLERPQIRVPPPAPEKA
	14%		PjC mutant of Par j 1.0102 (Cys4->Ser, Cys29->Ser and Cys30->Ser) (protein, not shown: small tags and cut ends) QETSGTMVRALMPCLPFVQGKEKEPSKGSSSGAKRLDGETKTGPQRVHACECIQTAMKTYSDIDGKLVSEVPKHCGIVDSKLPPIDVNMDCKTVGVVPRQPQLPVSLRHGPVTGPSDPAHKARLERPQIRVPPPAPEKA
	16%	3	PjA mutant of Par j 1.0102 (Cys29->Ser and Cys30->Ser) (protein, not shown: small tags and cut ends) QETCGTMVRALMPCLPFVQGKEKEPSKGSSSGAKRLDGETKTGPQRVHACECIQTAMKTYSDIDGKLVSEVPKHCGIVDSKLPPIDVNMDCKTVGVVPRQPQLPVSLRHGPVTGPSDPAHKARLERPQIRVPPPAPEKA
	95%		recombinant Par j 1.0102, major allergen of Parietaria judaica (wild type) (protein, not shown: small tags and cut ends) QETCGTMVRALMPCLPFVQGKEKEPSKGCCSGAKRLDGETKTGPQRVHACECIQTAMKTYSDIDGKLVSEVPKHCGIVDSKLPPIDVNMDCKTVGVVPRQPQLPVSLRHGPVTGPSDPAHKARLERPQIRVPPPAPEKA
	15%		PjD mutant of Par j 1.0102 (Cys29->Ser, Cys30->Ser, Cys50->Ser and Cys52->Ser) (protein, not shown: small tags and cut ends) QETCGTMVRALMPCLPFVQGKEKEPSKGSSSGAKRLDGETKTGPQRVHASESIQTAMKTYSDIDGKLVSEVPKHCGIVDSKLPPIDVNMDCKTVGVVPRQPQLPVSLRHGPVTGPSDPAHKARLERPQIRVPPPAPEKA
